# Positions count from the first letter of the chain named. Names may count otherwise.
# B1: 15R-LOX from Sorangium cellulosum (Sorangium cellulosum) (protein)
# chain: MSNPSLPQNDSPAEQQQRKSELARAQQTYVYDHDTRLSPLGVAQSVPNGQGFAPILVGSAALVILDLVGNVVAKASKLVGSDGSLRSPKGAPLDDATSARIQGVLHDLKQRHRELTLVLTPLHGEPERAPAPPPRAPAVALVEGVAQKFVTTAENRAMESVLGATNLSTKNVGDIIKSLLDTLLSAAGKLLLDLVGMYGQATSVYDYVSEFQTFRLPEIASVYQDDAIFAWMRVAGPNPLVLKRVASPGASFPVTDAQYRSVMGEGDSLASAGKEGRLYLADYKALSQLVPGTAPDQQKYVEAPLALFAVPAAGAPSRLLRPVAIQCAQAPGAASPIFTPSDGVAWEVAKLHVQVADGNFHELISHLGQTHLVLEAFAMATPRQLAPEHPVNVLLTPHFQGTLAINNAAEADLIAPGGPVDNLLAGTIASSTQLAVDAVLSYSVNQQFLPVALAQRGVDDPSTLPSYPYRDDATLLWGAIHTWVSRYLAVYYTSDADVLGDYELQHWIAELSSPSGCGLKDIGEDGAIRTVAYLADLLTHVIFTASAQHAAVNFPQSSLMSFTPALPLAAYAPAPSITAGLPPSEIFQHLPPLQQALLQINVMMLLGGVYYSRLGDYDRNIPGAYFTDARVREPLEAFQRELMEIEATIGKRNLQRFPYVVLLPSQIPQSINI
# B2: 15R-LOX from Sorangium cellulosum (Sorangium cellulosum; L423W/L424M/L568M) (protein)
# chain: B1 chain with L423W, L424M, L568M
# notes: expressed from pET-28a(+) in E. coli C2566, His-Trap purified
# B3: 15R-LOX from Sorangium cellulosum (Sorangium cellulosum; L423W) (protein)
# chain: B1 chain with L423W
# notes: as for B2
# B4: 15R-LOX from Sorangium cellulosum (Sorangium cellulosum; L423W/L424M) (protein)
# chain: B1 chain with L423W, L424M
# notes: as for B2
# B5: 15S-LOX from Archangium violaceum (Archangium violaceum Cb vi76; L429W/L430M/L575M) (protein)
# chain: MRSIPSLPQNDSPAQQELRLATLTQERQVYAYNFDSRLSPLGIAAQVPRQDNFSFVWLDGVATTGLQLLGNVLAIGAKLFDNGEAIQNDAGLSELELRRVEGTYRELTDGFSRLSDRTSRLHQAPRSPAVTLIADVIERPRTLLKAAGQKLEETAGVAIVSELATQAALDAPAIGQDILDLIDTLLKKLLSEAGDLFLKYLGLYGKAASLDNYTAQFSLLQPPSVASNYETDLIFARMRLAGPNPALLQGIAALPEKFPVTDAQYQSVMGSQDTLARAGQEGRLYLLDYAVFQGIPTGQTSGGQKYIEAPLALFAVPAANQADRKLRAVAIQCSQTPGRSNPIFTPADGTSWSLARLHVQVADGNYHELIAHLGLTHLILEEFTLSTHRQLAPQHPLYLLLTPHFQGTLAINNAAETSLIAPGGPVDQWMAGEIKASTQVSIQAVANQSINQSFLPRALAARGVDDASKLPDYPYRDDALLLWNDIRAWVSDYLAIYYNDDAAVRSDYELQAWVTELASPDAGKLKDVTEGGGGIQTFEYLVDLTTYIIFTASVQHAAVNFPQRTVMSYTPALPMAAYAPAPTSVEELPPSTELTHLPPLQMAFLQQAVTFGLGNVYFTRLGGYDTYLREPWFADARVWPALEVFQKRLRATEREIGQRNLSRIPYETLLPTAIPQSINI
# notes: as for B2
# B6: 15S-LOX from Archangium violaceum (Archangium violaceum Cb vi76; L429W/L430M) (protein)
# chain: B5 chain with M575L
# notes: as for B2
# B7: 15S-LOX from Archangium violaceum (Archangium violaceum Cb vi76; L429W) (protein)
# chain: B5 chain with M430L, M575L
# notes: as for B2
# B8: 15S-LOX from Archangium violaceum (Archangium violaceum Cb vi76) (protein)
# chain: B5 chain with W429L, M430L, M575L
# notes: as for B2
# Legend:
# purified protein [1] = substrate: CC/C=C\C/C=C\C/C=C\C/C=C\C/C=C\CCCC(=O)O; test: purified protein; type: biochemical, Sorangium cellulosum; settings: 50 mM HEPES pH 8.0, 20°C
# purified protein [2] = substrate: CC/C=C\C/C=C\C/C=C\C/C=C\C/C=C\CCCC(=O)O; test: purified protein; type: biochemical, Archangium violaceum; settings: 50 mM HEPES pH 8.5, 20°C
Protein,Km (purified protein [1]; products 15R- and 18R-HpEPEs),kcat (purified protein [1]; products 15R- and 18R-HpEPEs),kcat/Km (purified protein [1]; products 15R- and 18R-HpEPEs),Km (purified protein [2]; products 15S- and 18S-HpEPEs),kcat (purified protein [2]; products 15S- and 18S-HpEPEs),kcat/Km (purified protein [2]; products 15S- and 18S-HpEPEs),other results
B1,,,,,,,Km (purified protein [1]; product 15R-HpEPE): 41.9 µM; kcat (purified protein [1]; product 15R-HpEPE): 68 s⁻¹; kcat/Km (purified protein [1]; product 15R-HpEPE): 1.62e+06 M⁻¹ s⁻¹
B2,253.7 µM,90.8 s⁻¹,360000 M⁻¹ s⁻¹,,,,
B3,69.8 µM,105 s⁻¹,1.5e+06 M⁻¹ s⁻¹,,,,
B4,43.3 µM,22.7 s⁻¹,520000 M⁻¹ s⁻¹,,,,
B5,,,,221.3 µM,118 s⁻¹,530000 M⁻¹ s⁻¹,
B6,,,,57.2 µM,48.7 s⁻¹,850000 M⁻¹ s⁻¹,
B7,,,,35.6 µM,51.8 s⁻¹,1.45e+06 M⁻¹ s⁻¹,
B8,,,,,,,Km (purified protein [2]; product 15S-HpEPE): 40.7 µM; kcat (purified protein [2]; product 15S-HpEPE): 61.4 s⁻¹; kcat/Km (purified protein [2]; product 15S-HpEPE): 1.51e+06 M⁻¹ s⁻¹
